Sequences and labels used below:
B1: FIXa-D203N/F205T/R338E (protein)
chain 1: not shown
chain 2: not shown
B2: FIXa-R338E/R403E/E410N (protein)
chain 1: not shown
chain 2: not shown
B3: FIXa R318Y/R338E/R403E/E410N/T412A (protein)
chain 1: not shown
chain 2: not shown
B4: FIXa-D203N/F205T/K228N (protein)
chain 1: not shown
chain 2: not shown
B5: FIXa D104N/K106S/Y155F/K228N/K247N/N249S (protein)
chain 1: not shown
chain 2: not shown
B6: FIXa R318Y/R338E/R403E/E410N/T412V (protein)
chain 1: not shown
chain 2: not shown
B7: FIXa-Y155F/R338E/R403E/E410N (protein)
chain 1: not shown
chain 2: not shown
B8: FIXa R318Y/R338E/T412A (protein)
chain 1: not shown
chain 2: not shown
B9: FIXa K228N/K247N/N249S/R318Y/R338E/R403E/E410N (protein)
chain 1: not shown
chain 2: not shown
B10: FIXa-Y155F/R318Y/R338E/R403E (protein)
chain 1: not shown
chain 2: not shown
B11: FIXa R318Y/R338E/E410N/T412V (protein)
chain 1: not shown
chain 2: not shown
B12: FIXa-D203N/F205T/E410N (protein)
chain 1: not shown
chain 2: not shown
B13: FIXa Y155F/K228N/K247N/N249S (protein)
chain 1: not shown
chain 2: not shown

Broadly, the KM is the substrate concentration at which the rate is half of its maximum. For orientation: kcat means the number of substrate molecules converted per active site and unit of time at saturation.

Sequence of Factor X (FX), P00742 (P00742 whole entry, looked up): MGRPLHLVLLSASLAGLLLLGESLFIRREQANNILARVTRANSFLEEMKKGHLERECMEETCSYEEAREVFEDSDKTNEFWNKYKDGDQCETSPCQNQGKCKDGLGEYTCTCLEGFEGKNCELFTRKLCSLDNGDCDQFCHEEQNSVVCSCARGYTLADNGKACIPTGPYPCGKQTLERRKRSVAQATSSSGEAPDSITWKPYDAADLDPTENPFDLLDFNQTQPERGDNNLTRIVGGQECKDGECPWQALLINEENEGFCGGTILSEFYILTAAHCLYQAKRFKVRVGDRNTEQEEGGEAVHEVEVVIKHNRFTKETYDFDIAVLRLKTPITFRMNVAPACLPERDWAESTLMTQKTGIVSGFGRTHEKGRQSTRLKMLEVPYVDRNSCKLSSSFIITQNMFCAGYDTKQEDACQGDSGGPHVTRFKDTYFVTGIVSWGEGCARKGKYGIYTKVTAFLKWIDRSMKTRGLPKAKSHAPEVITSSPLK

The data set has as its target Factor X (FX), P00742.
On to B1, for which the KM was found to be 0.0241 µM; the KM for FX activation by FIXa in the Xase complex (FVIIIa/PC-PS/Ca2+), fluorogenic Spectrafluor FXa assay came out at 0.0241 µM; the kcat amounted to 2.5 s⁻¹.

Regarding B2, the KM worked out at 0.0367 µM; the KM for FX activation by FIXa in the Xase complex (FVIIIa/PC-PS/Ca2+), fluorogenic Spectrafluor FXa assay stood at 0.0455 µM; the catalytic constant (kcat) came to 5.8 s⁻¹.

On to B3, for which the kcat (Catalytic activity of FIXa variants) came to 8.4 s⁻¹.

In the case of B4, the KM amounted to 0.0399 µM; the KM for FX activation by FIXa in the Xase complex (FVIIIa/PC-PS/Ca2+), fluorogenic Spectrafluor FXa assay came out at 0.0399 µM; the kcat is 0.6 s⁻¹.

Regarding B5, the KM came to 0.0753 µM and the kcat (Catalytic activity of FIXa variants) worked out at 4.7 s⁻¹.

As for B6, the kcat (Catalytic activity of FIXa variants) amounted to 7.9 s⁻¹.

As to B7, the kcat worked out at 5.9 s⁻¹.

Regarding B8, the kcat (Catalytic activity of FIXa variants) was determined as 7 s⁻¹.

As to B9, the kcat (Catalytic activity of FIXa variants) amounted to 6.1 s⁻¹.

For the protein B10, the KM was found to be 0.0671 µM and the kcat came to 5.1 s⁻¹.

Regarding B11, the kcat (Catalytic activity of FIXa variants) was found to be 6.3 s⁻¹.

With B12, the KM was found to be 0.0455 µM; the KM for FX activation by FIXa in the Xase complex (FVIIIa/PC-PS/Ca2+), fluorogenic Spectrafluor FXa assay was 0.0455 µM; the kcat was 1.7 s⁻¹.

As to B13, the kcat (Catalytic activity of FIXa variants) was determined as 4.3 s⁻¹.

Values taken from patent US11491212.
